In paper PMC10689251:

Target: RuBisCO large subunit CbbL (Cyanobium sp. PCC 7001)
Test: cryo-EM structure; single-particle analysis of RuBisCO particles spilled from broken native α-carboxysomes of Cyanobium sp. PCC 7001 (sample ~1 mg/mL in TEMB buffer, graphene oxide coated grids); refined with D4 symmetry (2.87 Å) and without symmetry (3.79 Å); density for RuBP and magnesium in the active site

stoichiometry N: 8
Substance: RuBisCO large subunit CbbL (natural protein)
